Three molecules from paper PMC6183340 (2018) can be followed below.

Experiment [1] concerns the target T1, WT1 (modified WT1 235 peptide, mWT1 235) peptide on HLA-A*24:02 (human).
T1 peptide: CYTWNQMNL
The experiment is described as follows: NFAT-GFP reporter; TCR-transduced 2D3 cells, T2-2402 and titrated mWT1 235 peptide; full-length, on cells.

Experiment [2] concerns the target T2, WT1 (natural WT1 235 peptide, nWT1 235) peptide on HLA-A*24:02 (human).
T2 peptide: CMTWNQMNL
Briefly: NFAT-GFP reporter; TCR-transduced 2D3 cells, T2-2402 and titrated nWT1 235 peptide; full-length, on cells.

B1: TM-L1-TCR (TCR)
alpha TRAV17*01 TRAJ43*01 CDR3: CATDPGYNNDMRF
beta TRBV20-1*01 TRBJ2-2*01 CDR3: CSARGQRELSGELFF
For the molecule B1, the EC50 of peptide in experiment [1] is 1.78 µM.

B2: FSK1-TCR (TCR)
alpha TRAV19*01 TRAJ26*01 CDR3: CALSAAYGQNFVF
beta TRBV6-5*01 TRBJ2-1*01 CDR3: CASSYGKGLYNEQFF
In experiment [1], B2 registered an EC50 of peptide of 0.976 µM.

B3: TM-H2-TCR (TCR)
alpha TRAV20*02 TRAJ52*01 CDR3: CAVRGGRAGGTSYGKLTF
beta TRBV9*01 TRBJ2-3*01 CDR3: CASSVFGSSTDTQYF
Turning to B3, the EC50 of peptide was 0.0293 µM in experiment [1] and 0.18 µM in experiment [2].
